Measurements published in patent US20220332795A1 (ARO BIOTHERAPEUTICS, published 2022).
Positions count from the first letter of the chain named.

B1: SEQ ID NO 46 (designed binder, not shown: small tags and cut ends)
chain: MLPAPKNLVVSRVTEDSARLSWTAPDAAFDSFIIPYAEVRPDGEAIVLTVPGSERSYDLTGLKPGTEYSVLIHGVKGGKLSLPLSAIFTT
notes: FN3 domain, hit of the apical domain panning
B2: SEQ ID NO 49 (designed binder, not shown: small tags and cut ends)
chain: B1 chain with I33P, P35A, V39P, K79D, L80W
notes: as for B1
B3: SEQ ID NO 57 (designed binder, not shown: small tags and cut ends)
chain: B1 chain with I33A, V39L, R40S, P41R, D42N, S69T, K79C, L82D
notes: as for B1
B4: SEQ ID NO 64 (designed binder, not shown: small tags and cut ends)
chain: B1 chain with I33Y, P35V, V39P, R40I, D42N, K79R, L80N, L82D
notes: as for B1
B5: SEQ ID NO 65 (designed binder, not shown: small tags and cut ends)
chain: B1 chain with E15K, I33P, P35A, V39P, K79L, L82S
notes: as for B1
B6: SEQ ID NO 68 (designed binder, not shown: small tags and cut ends)
chain: B1 chain with K79H, L82D, F88S
notes: as for B1
B7: SEQ ID NO 77 (designed binder, not shown: small tags and cut ends)
chain: B1 chain with I33P, P35A, V39P, K79L, L82S
notes: as for B1
B8: SEQ ID NO 82 (designed binder, not shown: small tags and cut ends)
chain: B1 chain with I33L, V39T, R40S, D42S, K79D, L80Y, L82S
notes: as for B1
B9: SEQ ID NO 83 (designed binder, not shown: small tags and cut ends)
chain: B1 chain with I33P, P35A, V39P, K79L, L82S, F88S
notes: as for B1
B10: SEQ ID NO 99 (designed binder, not shown: small tags and cut ends)
chain: B1 chain with I33F, V39P, R40S, D42T, K79H, L82D, A86V
notes: as for B1
B11: SEQ ID NO 19 (designed binder, not shown: small tags and cut ends)
chain: MLPAPKNLVVSRVTEDSARLSWTAPDAAFDSFAITYTEAALCGEAIVLTVPGSERSYDLTGLKPGTEYPVPINGVKGGGTSGPLSAIFTT
notes: as for B1
B12: SEQ ID NO 13 (designed binder, not shown: small tags and cut ends)
chain: B11 chain with A33L, T35A, T37P, A39D, A40G, L41F, C42R, N73L, T80G
notes: as for B1
B13: SEQ ID NO 17 (designed binder, not shown: small tags and cut ends)
chain: B11 chain with A33P, T35L, A39C, A40V, L41Y, C42R, P69H, N73T, T80G, G82W
notes: as for B1
B14: SEQ ID NO 18 (designed binder, not shown: small tags and cut ends)
chain: B11 chain with A33N, T35M, T37H, A39I, A40I, L41Y, C42V, N73E
notes: as for B1
B15: SEQ ID NO 30 (designed binder, not shown: small tags and cut ends)
chain: B11 chain with A33I, T35H, T37V, A39Q, A40Q, C42I, N73T, G79A, T80C, G82W
notes: as for B1
B16: SEQ ID NO 33 (designed binder, not shown: small tags and cut ends)
chain: MLPAPKNLVVSRVTEDSARLSWTAPDAAFDSFGIAYVESYWYGEAIVLTVPGSERSYDLTGLKPGTEYNVPIYGVKGGDGSGPLSAIFTT
notes: as for B1
B17: SEQ ID NO 34 (designed binder, not shown: small tags and cut ends)
chain: B11 chain with A33Y, T37V, A39L, A40N, C42A, N73L, G79S, T80L, G82Q
notes: as for B1
B18: SEQ ID NO 43 (designed binder, not shown: small tags and cut ends)
chain: MLPAPKNLVVSRVTEDSARLSWTAPDAAFDSFMIVYYEYTRFGEAIVLTVPGSERSYDLTGLKPGTEYTVPIDGVKGGGRSSPLSAIFTT
notes: as for B1
B19: SEQ ID NO 56 (designed binder, not shown: small tags and cut ends)
chain: MLPAPKNLVVSRVTEDSARLSWTAPDAAFDSFSIGYVELVLLGEAIVLTVPGSERSYDLTGLKPGTEYDVLIPGVKGGSLSRPLSAIFTT
notes: as for B1
B20: SEQ ID NO 72 (designed binder, not shown: small tags and cut ends)
chain: B16 chain with G33T, A35G, V37R, S39W, Y73S, D79L, G80D, G82F
notes: as for B1
B21: SEQ ID NO 88 (designed binder, not shown: small tags and cut ends)
chain: B18 chain with M33P, V35K, Y37R, Y39V, T40L, F42C, D73T, G79F, R80G
notes: as for B1
B22: SEQ ID NO 47 (designed binder, not shown: small tags and cut ends)
chain: B18 chain with M33G, Y37L, Y39M, T40M, R41V, F42T, T69D, D73L, G79T, S82V
notes: as for B1
B23: SEQ ID NO 48 (designed binder, not shown: small tags and cut ends)
chain: MLPAPKNLVVSRVTEDSARLSWTAPDAAFDSFLIYYEEGYLEYYYSGEAIVLTVPGSERSYDLTGLKPGTEYYVGIVGVKGGGLSGPLSAISTT
notes: as for B1
B24: SEQ ID NO 50 (designed binder, not shown: small tags and cut ends)
chain: MSLPAPKNLVVSRVTEDSARLSWTAPDAAFDSFTIHYREFQLSGEAIVLTVPGSERSYDLTGLKPGTEYDVPIEGVKGGPGSRPLSAIFTT
notes: as for B1
B25: SEQ ID NO 76 (designed binder, not shown: small tags and cut ends)
chain: MLPAPKNLVVSRVTEDSARLSWTAPDAAFDSFTIEYYENIGIGEAIVLTVPGSERSYDLTGLKPGTEYSVPIVGVKGGPYSHPLSAIFTT
notes: as for B1
B26: SEQ ID NO 29 (designed binder, not shown: small tags and cut ends)
chain: MLPAPKNLVVSRVTEDSARLSWTAPDAAFDSFWIEYWEAVGFGEAIVLTVPGSERSYDLTGLKPGTEYFVGIYGVKGGYLSAPLSAIFTT
notes: as for B1
B27: SEQ ID NO 54 (designed binder, not shown: small tags and cut ends)
chain: B25 chain with T33A, E35A, Y37G, N39H, G41V, S69M, V73A, Y80I, H82L
notes: as for B1
B28: SEQ ID NO 85 (designed binder, not shown: small tags and cut ends)
chain: B25 chain with T33I, Y37F, N39P, G41P, S69A, P71N, V73Y, P79Y, Y80L
notes: as for B1
B29: SEQ ID NO 6 (designed binder, not shown: small tags and cut ends)
chain: MLPAPKNLVVSRVTEDSARLSWTAPDAAFDSFPIIYMETFSRGEAIVLTVPGSERSYDLTGLKPGTEYRVPIGGVKGGSSSCPLSAIFTT
notes: as for B1
B30: SEQ ID NO 62 (designed binder, not shown: small tags and cut ends)
chain: B29 chain with P33K, I35R, M37T, F40R, R42I, R69C, S79D, C82W, F88S
notes: as for B1
B31: SEQ ID NO 58 (designed binder, not shown: small tags and cut ends)
chain: MLPAPKNLVVSRVTEDSARLSWTAPDAAFDSFHIEYLELSRHGEAIVLTVPGSERSYDLTGLKPGTEYWVMIFGVKGGGPSKPLSAIFTT
notes: as for B1
B32: SEQ ID NO 59 (designed binder, not shown: small tags and cut ends)
chain: MLPAPKNLVVSRVTEDSARLSWTAPDAAFDSFVYNEVHWIGEAIVLTVPGSERSYDLTGLKPGTEYFVGIYGVKGGHWSKPLSAIFTT
notes: as for B1
B33: SEQ ID NO 61 (designed binder, not shown: small tags and cut ends)
chain: MLPAPKNLVVSRVTEDSARLSWTAPDAAFDSFQIVYSELWIKGEAIVLTVPGSERSYDLTGLKPGTEYQVPIPGVKGGRNSFPLSAIFTT
notes: as for B1
B34: SEQ ID NO 63 (designed binder, not shown: small tags and cut ends)
chain: MLPAPKNLVVSRVTEDSARLSWTAPDAAFDSFCISYYERMGRGEAIVLTVPGSERSYDLTGLKPGTEYMVYIFGVKGGLNSLPLSAIFTT
notes: as for B1
B35: SEQ ID NO 66 (designed binder, not shown: small tags and cut ends)
chain: MLPAPKNLVVSRVTEDSARLSWTAPDAAFDSFTIDYDEPRSPGEAIVLTVPGSERSYDLTGLKPGTEYRVFIWGIKGGDTSFPLSAIFTT
notes: as for B1
B36: SEQ ID NO 67 (designed binder, not shown: small tags and cut ends)
chain: MLPAPKNLVVSRVTEDSARLSWTAPDAAFDSFTILYAEQAQFGEAIVLTVPGSERSYDLTGLKPGTEYPITGVKGGTRSGPLSAISTT
notes: as for B1
B37: SEQ ID NO 69 (designed binder, not shown: small tags and cut ends)
chain: MLPAPKNLVVSRVTEDSARLSWTAPDAAFDSFHIAYEETATSGEAIYLRVPGSERSYDLTGLKPGTEYGVEIEGVKGGARSRPLYADFTT
notes: as for B1
B38: SEQ ID NO 71 (designed binder, not shown: small tags and cut ends)
chain: B31 chain with H33P, E35S, R41L, H42Y, W69P, M71G, F73A, G79V, P80V, K82R
notes: as for B1
B39: SEQ ID NO 101 (designed binder, not shown: small tags and cut ends)
chain: B19 chain with S33H, G35L, V37E, V40F, L42V, D69K, L71P, P73S, S79P, L80V
notes: as for B1
B40: SEQ ID NO 74 (designed binder, not shown: small tags and cut ends)
chain: B19 chain with G35T, V37L, L39W, V40W, L41N, D69M, L71T, S79M, L80S, R82Y
notes: as for B1

These binders were tested against T1, recombinant biotinylated CD71 extracellular domain (Sino Biologics) with an N-terminal 6His tag (human, UniProt P02786 89-760, biotinylated (site not stated)) (assay: primary solution ELISA screen, signal on hCD71 over HSA).
T1 construct: extracellular domain; also called hCD71; huCD71 ECD
T1 sequence (P02786 other isoform, or with tags, fused parts or gaps): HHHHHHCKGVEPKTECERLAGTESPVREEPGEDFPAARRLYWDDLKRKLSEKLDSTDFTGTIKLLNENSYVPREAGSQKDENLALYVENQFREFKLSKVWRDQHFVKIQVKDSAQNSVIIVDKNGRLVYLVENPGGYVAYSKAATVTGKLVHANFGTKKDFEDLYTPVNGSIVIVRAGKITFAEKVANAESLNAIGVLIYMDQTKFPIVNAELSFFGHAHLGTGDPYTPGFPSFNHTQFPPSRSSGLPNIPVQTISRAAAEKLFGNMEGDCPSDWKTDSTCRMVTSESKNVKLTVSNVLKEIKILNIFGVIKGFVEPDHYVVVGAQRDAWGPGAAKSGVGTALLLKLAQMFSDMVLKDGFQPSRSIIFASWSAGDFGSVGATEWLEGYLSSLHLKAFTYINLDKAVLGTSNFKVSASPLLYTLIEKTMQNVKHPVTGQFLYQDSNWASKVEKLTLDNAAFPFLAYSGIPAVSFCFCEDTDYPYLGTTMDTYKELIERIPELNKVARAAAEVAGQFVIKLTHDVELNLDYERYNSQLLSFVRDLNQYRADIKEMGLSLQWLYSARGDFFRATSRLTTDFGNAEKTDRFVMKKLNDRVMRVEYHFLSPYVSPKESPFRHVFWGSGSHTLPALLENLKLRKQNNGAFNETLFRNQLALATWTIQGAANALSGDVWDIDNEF

Binder | hCD71:HSA
B1 | 127
B2 | 70
B3 | 29
B4 | 218
B5 | 60
B6 | 14
B7 | 71
B8 | 105
B9 | 29
B10 | 45
B11 | 53
B12 | 70
B13 | 61
B14 | 79
B15 | 46
B16 | 132
B17 | 195
B18 | 36
B19 | 99
B20 | 38

Binder | hCD71:HSA
B21 | 21
B22 | 98
B23 | 26
B24 | 20
B25 | 41
B26 | 580
B27 | 49
B28 | 33
B29 | 43
B30 | 28
B31 | 101
B32 | 68
B33 | 19
B34 | 826
B35 | 29
B36 | 131
B37 | 1170
B38 | 96
B39 | 73
B40 | 56

Each binder was assayed against T1, recombinant biotinylated CD71 … (assay: primary solution ELISA screen).

Binder | RLU
B1 | 1.04e+06 RLU
B2 | 969000 RLU
B3 | 1.12e+06 RLU
B4 | 1.31e+06 RLU
B5 | 959000 RLU
B6 | 521000 RLU
B7 | 739000 RLU
B8 | 1.56e+06 RLU
B9 | 3.26e+06 RLU
B10 | 440000 RLU
B11 | 956000 RLU
B12 | 1.73e+06 RLU
B13 | 221000 RLU
B14 | 828000 RLU
B15 | 205000 RLU
B16 | 271000 RLU
B17 | 1.58e+06 RLU
B18 | 772000 RLU
B19 | 1.92e+06 RLU
B20 | 338000 RLU

Binder | RLU
B21 | 515000 RLU
B22 | 1.99e+06 RLU
B23 | 3.04e+06 RLU
B24 | 321000 RLU
B25 | 674000 RLU
B26 | 2.17e+06 RLU
B27 | 579000 RLU
B28 | 210000 RLU
B29 | 315000 RLU
B30 | 229000 RLU
B31 | 1.04e+06 RLU
B32 | 1.11e+06 RLU
B33 | 252000 RLU
B34 | 4.71e+06 RLU
B35 | 232000 RLU
B36 | 1.85e+06 RLU
B37 | 3.17e+06 RLU
B38 | 2.64e+06 RLU
B39 | 336000 RLU
B40 | 824000 RLU
